Test results from publication PMC11623921 (Nature chemical biology, 2023).
pKd: −log10 of the molar value.

How the values were obtained:
[1] = biological target: TnmJ; assay: isothermal titration calorimetry; assay type: binding, Streptomyces sp. CB03234; details: native substrate
[2] = biological target: TnmJ (Streptomyces sp. CB03234); assay: crystal structure
[3] = biological target: TnmJ (Streptomyces sp. CB03234); assay: SEC

Row | stoichiometry N [2] | stoichiometry N [3] | Substance | pKd [1]
1 | – | – | TNM I [compound 8] | 5.47
2 | 2 | 2 | TnmJ (enzyme) | –
